From patent US20180251524A1 (REGENTS OF THE UNIVERSITY OF MINNESOTA, published 2018)
Changes are numbered by the printed parent chain. Names and notes keep the numbering of the source. Values belong to the binder of their own block, whether it stands above or below them.

How the values were obtained:
[1] = biological target: T1, epithelial cell adhesion molecule (EpCAM) on EpCAM-expressing MCF-7 cells (human, UniProt P16422 24-314); experiment: flow cytometry titration on EpCAM+ MCF-7 cells
T1 construct: whole, on cells; also called cellular EpCAM; EpCAM+ MCF-7 cells
T1 sequence (looked up): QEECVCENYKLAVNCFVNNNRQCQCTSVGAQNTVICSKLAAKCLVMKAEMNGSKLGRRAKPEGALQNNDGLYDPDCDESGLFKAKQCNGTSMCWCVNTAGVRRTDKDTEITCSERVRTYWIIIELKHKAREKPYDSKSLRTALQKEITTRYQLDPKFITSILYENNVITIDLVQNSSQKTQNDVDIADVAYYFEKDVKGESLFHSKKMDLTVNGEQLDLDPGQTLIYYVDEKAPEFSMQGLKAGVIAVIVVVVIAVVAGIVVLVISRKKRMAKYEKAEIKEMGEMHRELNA

[2] = biological target: T1, epithelial cell adhesion molecule …; experiment: flow cytometry titration of unmodified parent ligand on MCF-7 cells
[3] = biological target: T1, epithelial cell adhesion molecule …; experiment: flow cytometry titration of biotinylated ligand on EpCAM+ MCF-7 cells
[4] = biological target: T1, epithelial cell adhesion molecule …; experiment: flow cytometry, multiple affinity titrations on EpCAM+ MCF-7 cells
[5] = biological target: T1, epithelial cell adhesion molecule …; experiment: flow cytometry titration of soluble clone on MCF-7 cells
[6] = biological target: T1, epithelial cell adhesion molecule …; experiment: flow cytometry titration on EpCAM-expressing MCF-7 cells, anti-MYC detection; apparent (multivalent) Kd
Protocol: The apparent affinity and selectivity of the Fn3 and mSA/Fn3 CSANs was determined by flow cytometry, as previously described (Stern, et al., ACS Combinatorial Science 2017, 19 (5), 315-323). Briefly, EpCAM-expressing MCF-7 cells and EpCAM-negative U-87 MG cells were cultured to approximately 80% confluency, detached, and counted, as described above. Aliquots of 5×10⁴ cells were washed with PBSA (PBS with 0.1% w/v bovine serum albumin) and labeled with varying concentrations of Fn3 or mSA/Fn3 CSANs for ≥90 min at 4° C. Cells were then pelleted (500 g, 5 min, 4° C.) and resuspended in 50 μL anti-MYC (clone 9E10) Alexa Fluor 647 conjugate (Thermo Fisher Scientific, Cat: MA1-980-A647; 5 μg/mL in PBSA). After incubating at 4° C. for ≥30 min in the dark, cells were again pelleted and washed thrice with 1 mL cold PBSA before the fluorescence was analyzed on an LSR II flow cytometer (BD Biosciences).

[7] = biological target: T1, epithelial cell adhesion molecule …; experiment: flow cytometry on EpCAM+ MCF-7 cells

B1: NODAGA-Fn-NT (Fn_NT_G65C non-targeted control conjugated to maleimide-NODAGA) (designed binder)
chain: SSDSPRNLEVTNATPNSLTISWDAPAVTVRYYRITYGETGGNSPSQEFTVPGSKSTATISGLKPCQDYTITVYAVTGRDGSPASSKPISINYRTEIDKPSQHHHHHH
modifications: maleimide-NODAGA on the engineered cysteine (G65C)
notes: Non-targeted scaffold with wild-type loops, G65C and RGD changed to RDG
binding result [1]: no binding

B2: EpCAM-binding fibronectin clone C8 (parent ligand) (designed binder)
chain: SSDSPRNLEVTNATPNSLTISWDYPNSASYYRITYSETGGNSPSQEFTVPGNTYNATISGLKPGQDYIITVYAVTYRDNYSYSNLISINYRTEIDKPSQHHHHHH
notes: also called C08
Kd [2]: 11 nM

B4: NODAGA-Fn-C5 (Fn_C5_G65C conjugated to maleimide-NODAGA) (designed binder)
chain: B2 chain with Y24N, P25S, S27Y, S36G, F47L, N52S, G64C, T92S
modifications: maleimide-NODAGA on the engineered cysteine (G65C, position as in SEQ ID NO: 1)
notes: Single NODAGA per domain by MALDI-MS; also called Fn 3.4.5 G65C NODAGA conjugate
Kd [4]: 14 nM

B7: EpCAM-binding fibronectin clone B22 (parent ligand) (designed binder)
chain: B2 chain with Y24D, P25Y, N26T, S36G, I58V, K62R, L85P
Kd [2]: 1100 nM

B10: Fn3 CSANs (DHFR^2-Fn3 fusion proteins with clone C5, oligomerized with bisMTX) (designed binder)
chain: MGEQKLISEEDLGGSGGGSGGGISLIAALAVDRVIGMENAMPWNLPADLAWFKRNTLNKPVIMGRHTWESIGRPLPGRKNIILSSQPGTDDRVTWVKSVDEAIAAAGDVPEIMVIGGGRVYEQFLPKAQKLYLTHIDAEVEGDTHFPDYEPDDWESVFSEFHDADAQNSHSYSFEILERRGGISLIAALAVDRVIGMENAMPWNLPADLAWFKRNTLNKPVIMGRHTWESIGRPLPGRKNIILSSQPGTDDRVTWVKSVDEAIAAAGDVPEIMVIGGGRVYEQFLPKAQKLYLTHIDAEVEGDTHFPDYEPDDWESVFSEFHDADAQNSHSYSFEILERRGELGGGGSGGGGSGGGGSASSSDSPRNLEVTNATPNSLTISWDNSNYASYYRITYGETGGNSPSQELTVPGSTYNATISGLKPGQDYIITVYAVTYRDNYSYSNLISINYRSEIDKPSQGSHHHHHH
notes: Multivalent nanoring; also called EpCAM-targeted Fn3 CSANs; monospecific Fn3 CSANs
Kd [6]: 21 nM

B12: mixed, reduced valency CSANs of 1DD-FnC5-v4 and 1DD-FnNT-v4 subunits (designed binder)
chain 1: MGEQKLISEEDLGGSGGGSGGGISLIAALAVDRVIGMENAMPWNLPADLAWFKRNTLNKPVIMGRHTWESIGRPLPGRKNIILSSQPGTDDRVTWVKSVDEAIAAAGDVPEIMVIGGGRVYEQFLPKAQKLYLTHIDAEVEGDTHFPDYEPDDWESVFSEFHDADAQNSHSYSFEILERRGGISLIAALAVDRVIGMENAMPWNLPADLAWFKRNTLNKPVIMGRHTWESIGRPLPGRKNIILSSQPGTDDRVTWVKSVDEAIAAAGDVPEIMVIGGGRVYEQFLPKAQKLYLTHIDAEVEGDTHFPDYEPDDWESVFSEFHDADAQNSHSYSFEILERRGELGGSGGGGSGGGGSGGGGSGGGGSGGGGSGGGGSGGGGSGGGGSGGASSSDSPRNLEVTNATPNSLTISWDNSNYASYYRITYGETGGNSPSQELTVPGSTYNATISGLKPGQDYIITVYAVTYRDNYSYSNLISINYRSEIDKPSQGSHHHHHH
chain 2: MGEQKLISEEDLGGSGGGSGGGISLIAALAVDRVIGMENAMPWNLPADLAWFKRNTLNKPVIMGRHTWESIGRPLPGRKNIILSSQPGTDDRVTWVKSVDEAIAAAGDVPEIMVIGGGRVYEQFLPKAQKLYLTHIDAEVEGDTHFPDYEPDDWESVFSEFHDADAQNSHSYSFEILERRGGISLIAALAVDRVIGMENAMPWNLPADLAWFKRNTLNKPVIMGRHTWESIGRPLPGRKNIILSSQPGTDDRVTWVKSVDEAIAAAGDVPEIMVIGGGRVYEQFLPKAQKLYLTHIDAEVEGDTHFPDYEPDDWESVFSEFHDADAQNSHSYSFEILERRGELGGSGGGGSGGGGSGGGGSGGGGSGGGGSGGGGSGGGGSGGGGSGGASSSDSPRNLEVTNATPNSLTISWDAPAVTVRYYRITYGETGGNSPSQEFTVPGSKSTATISGLKPGQDYTITVYAVTGRDGSPASSKPISINYRTEIDKPSQGSHHHHHH
notes: Nanoring co-assembled with the chemical dimerizer bis-methotrexate
binding result [1]: binds

B13: CSANs displaying only the non-binding control domain (1DD-FnNT-v4) (designed binder)
chain: B12 chain 2
notes: Nanoring oligomerized with bis-methotrexate; control; also called 1DD-FnNT-v4 CSANs
binding result [7]: no binding

Now from value to binder:

Kd [3]: 5.7 nM
B3: non-specifically biotinylated fibronectin clone C8 (designed binder)
chain: B2 chain
modifications: non-specific biotinylation of primary amines (N-terminus, lysines) with EZ-Link Sulfo-NHS-Biotin
notes: also called biotin-C08; biotin-C8

Kd [3]: 1700 nM
B5: non-specifically biotinylated fibronectin clone B22 (designed binder)
chain: B2 chain with Y24D, P25Y, N26T, S36G, I58V, K62R, L85P
modifications: non-specific biotinylation of primary amines (N-terminus, lysines) with EZ-Link Sulfo-NHS-Biotin
notes: also called biotin-B22

Kd [3]: 9.7 nM
B6: non-specifically biotinylated fibronectin clone C10 (designed binder)
chain: B2 chain with Y24D, N26D, S27F, S36G, N41S, N55S, Q65R, Y67H, I68T, L85P
modifications: non-specific biotinylation of primary amines (N-terminus, lysines) with EZ-Link Sulfo-NHS-Biotin
notes: also called biotin-C10

Kd [5]: 17 nM
B8: EpCAM-binding fibronectin (Fn3) clone C5 (designed binder)
chain: B2 chain with Y24N, P25S, S27Y, S36G, F47L, N52S, T92S
notes: Soluble domain made in E. coli; also called Fn 3.4.5; Fn C5

Kd [2]: 25 nM
B9: EpCAM-binding fibronectin clone C10 (parent ligand) (designed binder)
chain: B2 chain with Y24D, N26D, S27F, S36G, N41S, N55S, Q65R, Y67H, I68T, L85P

Kd [6]: 24 nM
B11: bispecific mSA/Fn3 CSANs (co-assembled mSA-DHFR^2 and DHFR^2-Fn3 subunits) (designed binder)
chain 1: B10 chain
chain 2: MAEAGITGTWYNQSGSTFTVTAGADGNLTGQYENRAQGTGCQNSPYTLTGRYNGTKLEWRVEWNNSTENCHSRTEWRGQYQGGAEARINTQWNLTYEGGSGPATEQGQDTFTKVKELGGSGGGSGGGSGGMISLIAALAVDRVIGMENAMPWNLPADLAWFKRNTLNKPVIMGRHTWESIGRPLPGRKNIILSSQPGTDDRVTWVKSVDEAIAAAGDVPEIMVIGGGRVYEQFLPKAQKLYLTHIDAEVEGDTHFPDYEPDDWESVFSEFHDADAQNSHSYSFEILERRGMISLIAALAVDRVIGMENAMPWNLPADLAWFKRNTLNKPVIMGRHTWESIGRPLPGRKNIILSSQPGTDDRVTWVKSVDEAIAAAGDVPEIMVIGGGRVYEQFLPKAQKLYLTHIDAEVEGDTHFPDYEPDDWESVFSEFHDADAQNSHSYSFEILERRGGSGGGSGGGSGGDYKDDDDK
notes: Stochastic mixture of the two subunits oligomerized with bisMTX; also called mSA/Fn3 bispecific CSANs

binding result [1]: binds
B14: mixed, reduced valency CSANs of 1DD-FnB22-v4 and 1DD-FnNT-v4 subunits (designed binder)
chain 1: B12 chain 1 with N414D, S415Y, N416T, Y417S, L437F, S442N, I448V, K452R, L475P, S482T
chain 2: B12 chain 2
notes: as for B12
